Measured values as given in patent US11653679B2, “High-purity steviol glycosides” (PureCircle Sdn Bhd, priority 2014, dated 2023).

Tests used:
Type in all cases: biochemical
[1] = Directed evolution of UGTSL2 round 2, initial rate for Rebaudioside A conversion (Example 48); settings: UGTSL2 round 2 clone lysates, 0.5 mM Rebaudioside A, 30° C., pH 7.2; baseline clone UGTSL2 defined as 100%
Procedure: (§1) In order to measure the activity of the variants for the transformation of Rebaudioside A to Rebaudioside D, 100 μL of fresh lysate was added to a solution of Rebaudioside A (final concentration 0.5 mM), MgCl2 (final concentration 3 mM) and UDP-Glucose (final concentration 2.5 mM) in 50 mM phosphate buffer pH 7.2. The reaction was allowed to run at 30° C. and samples were taken after 2, 4, 6 and 22 h. to determine the initial rates after HPLC analysis (CAD detection) using the analytical method that was described above for the transformation of Rebaudioside A to Rebaudioside D.
(§2) Apart from the new variants, both experiments were also performed with baseline clone, UGTSL2. The initial rates for the conversion of Rebaudioside A or Rebaudioside D for this baseline clone were defined as 100%.
(§3) Activity of each clone was defined as normalized activity compared to baseline clone UGTSL2 whereas specificity of each clone was expressed as the ratio between the initial rates for the conversion of Rebaudioside A and Rebaudioside D.

[2] = Directed evolution of UGTSL2 round 2, initial rate for Rebaudioside D conversion (Example 48); settings: UGTSL2 round 2 clones; specificity
Procedure: The reaction was allowed to run at 30° C. and samples were taken after 2, 4, 6 and 22 h. to determine the initial rates for Rebaudioside D conversion after HPLC analysis (CAD detection).
as §2, §3

[3] = Activity for Rubusoside to Rebaudioside E conversion with UGTSL, UGTSL2, UGTLB (Examples 29, 32); settings: reaction time UGTSL 45 h., UGTSL2 2 h., 600 μL lysate, based on initial concentration of Rubusoside
Procedure: (§4) Activity tests were performed at 3 mL scale with 600 μL of lysate for the transformation of Rubusoside using 0.5 mM of substrate, 2.5 mM of UDP-Glucose and 3 mM MgCl2 in 50 mM Sodium Phosphate buffer at pH 7.2. Samples were taken and analyzed by HPLC. The HPLC assay was performed as described in EXAMPLE 20.
as §4, with “corresponding chromatograms are depicted” for “HPLC assay was performed as described”, “FIG. 63b.” for “EXAMPLE 20.”

[4] = Directed evolution of UGTSL2 round 3, initial rate for Rebaudioside D conversion (Example 53); settings: UGTSL2 round 3 clones; specificity
Procedure: In parallel 100 μL of fresh lysate was added to a solution of Rebaudioside D (final concentration 0.5 mM), MgCl2 (final concentration 3 mM) and UDP-Glucose (final concentration 2.5 mM) in 50 mM phosphate buffer pH 7.2. The reaction was allowed to run at 30° C. and samples were taken after 2, 4, 6 and 22 h. to determine the initial rates for Rebaudioside D conversion after HPLC analysis (CAD detection).
(§5) Apart from the new variants for this round, both experiments were also performed with baseline clone, UGTSL2. The initial rates for the conversion of Rebaudioside A or Rebaudioside D for this baseline clone were defined as 100%.
as §3

[5] = Activity for Stevioside to Rebaudioside E conversion with UGTSL, UGTSL2, UGTLB (Examples 28, 32); settings: reaction time UGTSL 22 h., UGTSL2 2 h., 600 μL lysate, based on initial concentration of Stevioside
Procedure: as §4, with “Stevioside” for “Rubusoside”, “HPLC. HPLC Analysis.” for “HPLC.”
as §4, with “Stevioside” for “Rubusoside”, “corresponding chromatograms are depicted” for “HPLC assay was performed as described”, “FIG. 63a.” for “EXAMPLE 20.”

[6] = Directed evolution of UGTSL2, Rebaudioside A to Rebaudioside D, round 1 (Example 45)
Procedure: Lysis was performed by addition of Bugbuster® Master mix (Novagen®) to the thawed cells and the lysate was recovered by centrifugation. […]
The reaction was allowed to run at 30° C. and samples were taken after 2, 4, 6 and 22 h. to determine the initial rate by HPLC (CAD detection) using the analytical method that was described above for the transformation of Rebaudioside A to Rebaudioside D. In parallel the experiments were performed with baseline clone, UGTSL2. The initial rate for this baseline clone was defined as 100%. As an indication of the specificity of the clones, Rebaudioside M2 content was determined at 100% UDP-Glucose conversion and Rebaudioside D2 content was determined at 50% UDP-Glucose conversion. Wherein UDP glucose conversion is defined as: ([Reb D]/[Reb A]0)+([Reb D2]/[Reb A]0)+2*([Reb M2]/[Reb A]0).
The normalized initial rate, Rebaudioside M2 content at 100% UDP-glucose conversion and Rebaudioside D2 content at 50% UDP-glucose conversion are depicted in the following table

[7] = Rubusoside conversion products with UGTSL, UGTSL2, UGTLB by LCMS (Example 33); settings: reaction time UGTSL2 2 hrs, UGTLB 5 hrs, UGTSL 45 hrs
Procedure: (§6) Conversion of stevioside with UGTSL and UGTSL2 was conducted in similar manner to Example 28, and the conversion of rubusoside with UGTSL and UGTSL2 was conducted similarly to Example 29. Conversions of rubusoside and stevioside with UGTLB was conducted similarly to Example 32.
(§7) The reaction mixtures were analyzed by LCMS to determine all reaction products.

[8] = Directed evolution of UGTSL2 round 3, initial rate for Rebaudioside A conversion (Example 53); settings: UGTSL2 round 3 clone lysates, 0.5 mM Rebaudioside A, 30° C., pH 7.2; baseline clone UGTSL2 defined as 100%
Procedure: as §1, §5, §3

[9] = Stevioside conversion products with UGTSL, UGTSL2, UGTLB by LCMS (Example 33); settings: reaction time UGTSL2 2 hrs, UGTLB 2 hrs, UGTSL 22 hrs
Procedure: as §6, §7

[10] = Activity for Rebaudioside A to Rebaudioside D conversion with UGTSL2, UGTLB (Examples 30, 32); settings: 23 h., 60 μL lysate, based on initial concentration of Rebaudioside A
Procedure: as §4, with “60” for “600”, “Rebaudioside A” for “Rubusoside”
as §4, with “Rebaudioside A” for “Rubusoside”, “corresponding chromatogram after 23 h. of reaction is depicted” for “HPLC assay was performed as described”, “FIG. 63c.” for “EXAMPLE 20.”

[11] = Transformation of Rebaudioside D to Rebaudioside M with UGT76G1 (Examples 6, 13), HPLC; settings: after 120 h, in-vitro produced UGT76G1, 0.5 mM Rebaudioside D, 30° C.
Procedure: The total volume of the reaction was 2 mL with the following composition: 50 mM sodium phosphate buffer pH 7.2, 3 mM MgCl2, 3.8 mM UDP-glucose, 0.5 mM Rebaudioside D and 180 μL of in-vitro produced UGT76G1. The reactions were run at 30° C. on an orbitary shaker at 135 rpm. For each sample, 400 μL of reaction mixture was quenched with 40 μL of 2N H2SO4 and 360 μL of 60% MeOH. After centrifugation, the supernatant was analyzed by HPLC (CAD).
(§8) Activity tests were performed on a 5 mL scale with 500 μL of thawed lysate for the transformation of Stevioside to Rebaudioside A and Rebaudioside D to Rebaudioside M using 0.5 mM of substrate, 2.5 mM of UDP-Glucose and 3 mM MgCl2 in 50 mM Sodium Phosphate buffer at pH 7.2. Samples were taken and analyzed by HPLC.

[12] = Conversion of Rebaudioside E to Rebaudioside D with UGT76G1 lysate (Example 25); settings: UGT76G1 thawed lysate, 0.5 mM Rebaudioside E, pH 7.5, 30° C.
Procedure: The total volume of the reaction was 5.0 mL with the following composition: 100 mM potassium phosphate buffer pH 7.5, 3 mM MgCl2, 2.5 mM UDP-glucose, 0.5 mM Rebaudioside E and 500 μL of UGT76G1 thawed lysate (UGT76G1 gene was cloned in pET30a+ vector and expressed in E. coli BL21 (DE3)). The reactions were run at 30° C. on an orbitary shaker at 135 rpm. For sampling 300 μL of the reaction mixture was quenched with 30 μL of 2N H2SO4 and 270 μL of methanol/water (6/4). The samples were immediately centrifuged and kept at 10° C. before analysis by HPLC (CAD detection).

[13] = Transformation of Stevioside to Rebaudioside A with UGT76G1 lysate (Examples 4, 13), HPLC; settings: in-vivo produced UGT76G1 thawed lysate, 0.5 mM Stevioside, 30° C., HPLC (CAD)
Procedure: The total volume of the reaction was 5.0 mL with the following composition: 50 mM sodium phosphate buffer pH 7.2, 3 mM MgCl2, 2.5 mM UDP-glucose, 0.5 mM Stevioside and 500 μl, of UGT76G1 thawed lysate. The reactions were run at 30° C. on an orbitary shaker at 135 rpm. For each sample, 460 μL of the reaction mixture was quenched with 40 μL of 2N H2SO4 and 420 μL of methanol/water (6/4). The samples were immediately centrifuged and kept at 10° C. before analysis by HPLC (CAD).
as §8

[14] = 0.5 mM substrate, 2.5 mM UDP-Glucose, pH 7.2
[15] = UGTSL2 round 1 clones, indication of specificity

B1: UGTSL2: UDP-glucosyltransferase, Solanum lycopersicum, SEQ ID NO:9 (protein, listed as Solanum lycopersicum)
chain: MATNLRVLMFPWLAYGHISPFLNIAKQLADRGFLIYLCSTRINLESIIKKIPEKYADSIHLIELQLPELPELPPHYHTTNGLPPHLNPTLHKALKMSKPNFSRILQNLKPDLLIYDVLQPWAEHVANEQNIPAGKLLTSCAAVFSYFFSFRKNPGVEFPFPAIHLPEVEKVKIREILAKEPEEGGRLDEGNKQMMLMCTSRTIEAKYIDYCTELCNWKVVPVGPPFQDLITNDADNKELIDWLGTKHENSTVFVSFGSEYFLSKEDMEEVAFALELSNVNFIWVARFPKGEERNLEDALPKGFLERIGERGRVLDKFAPQPRILNHPSTGGFISHCGWNSAMESIDFGVPIIAMPIHNDQPINAKLMVELGVAVEIVRDDDGKIHRGEIAETLKSVVTGETGEILRAKVREISKNLKSIRDEEMDAVAEELIQLCRNSNKSK
- Normalized initial rate for conversion of Rebaudioside A [1]: 100%
- Ratio between initial rates for the conversion of Rebaudioside A and Rebaudioside D [2]: 1.67
- Rebaudioside E formation ([3]; 0.5 mM Rubusoside): 55%
- Rubusoside conv. (reaction time) [3, 14]: 80% (2 h.)
- Ratio between initial rates for the conversion of Rebaudioside A and Rebaudioside D [4]: 1.67
- Rebaudioside E formation ([5]; 0.5 mM Stevioside): 50%
- Stevioside conv. (reaction time) [5, 14]: 77% (2 h.)
- Normalized initial rate (0-4 h) ([6]; UGTSL2 round 1 clone lysates, 30° C., pH 7.2, HPLC (CAD), baseline clone UGTSL2 defined as 100%): 100%
- Reb D2 content at 50% UDP-Glc conversion [6, 15]: 12.5%
- Reb M2 content at 100% UDP-Glc conversion [6, 15]: 100%
- LC-MS, peak area ratio (%): REb E [7]: 52.88%
- LC-MS, peak area ratio (%): Reb D [7]: 6.73%
- LC-MS, peak area ratio (%): Rub [7]: 3.54%
- LC-MS, peak area ratio (%): Stev [7]: 2.12%
- LC-MS, peak area ratio (%): Unknown peak #1 (MW804) RT 30.70 min [7]: 12.02%
- LC-MS, peak area ratio (%): Unknown peak #2 (MW804) RT 49.50 min [7]: 9.94%
- LC-MS, peak area ratio (%): Unknown peak #3 (MW804) RT 50.40 min [7]: 12.77%
- Normalized initial rate for conversion of Rebaudioside A [8]: 100%
- LC-MS, peak area ratio (%): Reb D [9]: 1.70%
- LC-MS, peak area ratio (%): Reb E [9]: 42.56%
- LC-MS, peak area ratio (%): Stev [9]: 20.01%
- LC-MS, peak area ratio (%): Unknown peak #1 (MW966) RT = 22.60 min [9]: 4.48%
- LC-MS, peak area ratio (%): Unknown peak #2 (MW966) RT = 26.50 min [9]: 5.56%
- LC-MS, peak area ratio (%): Unknown peak #3 (MW966) RT = 29.50 min [9]: 25.70%
- Rebaudioside D formation ([10]; 0.5 mM Rebaudioside A): 75%
- Rebaudioside A conv. (reaction time) [10, 14]: 78% (23 h.)

B2: UGT76G1: UDP-glucosyltransferase UGT76G1 [Stevia rebaudiana], Genbank AAR06912.1, SEQ ID NO:11 (protein, listed as Stevia rebaudiana)
chain: MENKTETTVRRRRRIILFPVPFQGHINPILQLANVLYSKGFSITIFHTNFNKPKTSNYPHFTFRFILDNDPQDERISNLPTHGPLAGMRIPIINEHGADELRRELELLMLASEEDEEVSCLITDALWYFAQSVADSLNLRRLVLMTSSLFNFHAHVSLPQFDELGYLDPDDKTRLEEQASGFPMLKVKDIKSAYSNWQILKEILGKMIKQTKASSGVIWNSFKELEESELETVIREIPAPSFLIPLPKHLTASSSSLLDHDRTVFQWLDQQPPSSVLYVSFGSTSEVDEKDFLEIARGLVDSKQSFLWVVRPGFVKGSTWVEPLPDGFLGERGRIVKWVPQQEVLAHGAIGAFWTHSGWNSTLESVCEGVPMIFSDFGLDQPLNARYMSDVLKVGVYLENGWERGEIANAIRRVMVDEEGEYIRQNARVLKQKADVSLMKGGSSYESLESLVSYISSL
- conversion of rebaudioside D to rebaudioside M [11]: 80%
- conversion of Rebaudioside E to Rebaudioside D [12]: complete conversion
- conversion of stevioside to rebaudioside A [13]: almost complete conversion
